# Source: paper PMC7497641, “Neurotropic activity and safety of methylene-cycloalkylacetate (MCA) derivative 3-(3-allyl-2-methylenecyclohexyl) propanoic acid” (ACS Chemical Neuroscience, 2020)
# B1: NGF: Tissue culture grade mouse β-nerve growth factor, neurotrophin used as positive control (protein, UniProt P01139 122-241, looked up)
# Beta-nerve growth factor: SSTHPVFHMGEFSVCDSVSVWVGDKTTATDIKGKEVTVLAEVNINNSVFRQYFFETKCRASNPVESGCRGIDSKHWNSYCTTTHTFVKALTTDEKQAAWRFIRIDTACVCVLSRKATRRG
# modifications: Beta-nerve growth factor
# notes: Tissue culture grade mouse β-nerve growth factor, neurotrophin used as positive control
# What was measured:
# [1] = target: T1, Nicotinic acetylcholine Receptor alpha-4 beta-2 (nAChR(a4/b2)) (Homo sapiens, UniProt P17787+P43681); test: cell-based; details: Blocker; Ion channel; read-out: RC50 (the source's name)
# T1 construct: host or cells: unnamed DiscoverX cell line
# T1 sequence (P43681 29-627 limits assumed): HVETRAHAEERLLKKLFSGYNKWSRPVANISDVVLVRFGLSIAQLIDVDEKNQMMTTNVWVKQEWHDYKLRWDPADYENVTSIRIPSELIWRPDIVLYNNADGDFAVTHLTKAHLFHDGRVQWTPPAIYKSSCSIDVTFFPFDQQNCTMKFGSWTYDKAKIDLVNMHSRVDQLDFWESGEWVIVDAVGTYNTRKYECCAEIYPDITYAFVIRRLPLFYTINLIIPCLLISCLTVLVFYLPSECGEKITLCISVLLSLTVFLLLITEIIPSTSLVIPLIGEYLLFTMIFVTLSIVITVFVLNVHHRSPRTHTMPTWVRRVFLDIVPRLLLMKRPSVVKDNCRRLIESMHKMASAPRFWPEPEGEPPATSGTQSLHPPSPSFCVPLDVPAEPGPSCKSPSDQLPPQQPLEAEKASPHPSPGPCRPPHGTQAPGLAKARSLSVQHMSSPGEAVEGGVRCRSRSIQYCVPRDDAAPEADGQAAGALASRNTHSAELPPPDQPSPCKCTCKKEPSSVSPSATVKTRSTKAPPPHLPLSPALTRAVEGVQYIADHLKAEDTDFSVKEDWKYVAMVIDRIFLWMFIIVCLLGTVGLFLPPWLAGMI
# T1 sequence (P17787 26-502): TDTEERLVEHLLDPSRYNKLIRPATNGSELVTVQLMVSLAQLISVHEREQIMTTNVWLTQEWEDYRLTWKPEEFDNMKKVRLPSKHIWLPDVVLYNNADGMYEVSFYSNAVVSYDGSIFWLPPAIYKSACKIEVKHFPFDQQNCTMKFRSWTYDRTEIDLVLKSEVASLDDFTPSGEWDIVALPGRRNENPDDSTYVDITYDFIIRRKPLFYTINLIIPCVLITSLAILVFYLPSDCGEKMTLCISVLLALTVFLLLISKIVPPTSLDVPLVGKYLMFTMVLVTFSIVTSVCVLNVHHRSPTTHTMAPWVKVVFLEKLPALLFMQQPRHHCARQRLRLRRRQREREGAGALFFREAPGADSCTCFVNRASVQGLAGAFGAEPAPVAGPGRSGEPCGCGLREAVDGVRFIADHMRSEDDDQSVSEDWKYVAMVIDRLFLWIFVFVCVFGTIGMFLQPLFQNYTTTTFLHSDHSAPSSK
# [2] = target: Gamma-aminobutyric acid Receptor A (GABAA) (Homo sapiens, UniProt P14867+P18507+P47870); test: SAFETYscan Ion channel assay; type: cell-based; details: Blocker, read-out: RC50 (the source's name)
# Sequence of Gamma-aminobutyric acid Receptor A (GABAA) (P14867 28-456): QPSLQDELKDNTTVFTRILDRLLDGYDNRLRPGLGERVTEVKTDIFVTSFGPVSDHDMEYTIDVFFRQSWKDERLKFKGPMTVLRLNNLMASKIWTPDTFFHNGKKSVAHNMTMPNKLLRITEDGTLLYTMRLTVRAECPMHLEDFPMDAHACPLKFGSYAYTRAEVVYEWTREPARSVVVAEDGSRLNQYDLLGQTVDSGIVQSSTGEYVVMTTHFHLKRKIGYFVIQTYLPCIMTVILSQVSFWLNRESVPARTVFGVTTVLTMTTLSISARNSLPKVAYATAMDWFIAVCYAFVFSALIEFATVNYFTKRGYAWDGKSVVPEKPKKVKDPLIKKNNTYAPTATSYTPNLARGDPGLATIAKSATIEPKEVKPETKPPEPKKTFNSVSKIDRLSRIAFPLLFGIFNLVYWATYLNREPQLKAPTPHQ
# Sequence of Gamma-aminobutyric acid Receptor A (GABAA) (P47870 26-512): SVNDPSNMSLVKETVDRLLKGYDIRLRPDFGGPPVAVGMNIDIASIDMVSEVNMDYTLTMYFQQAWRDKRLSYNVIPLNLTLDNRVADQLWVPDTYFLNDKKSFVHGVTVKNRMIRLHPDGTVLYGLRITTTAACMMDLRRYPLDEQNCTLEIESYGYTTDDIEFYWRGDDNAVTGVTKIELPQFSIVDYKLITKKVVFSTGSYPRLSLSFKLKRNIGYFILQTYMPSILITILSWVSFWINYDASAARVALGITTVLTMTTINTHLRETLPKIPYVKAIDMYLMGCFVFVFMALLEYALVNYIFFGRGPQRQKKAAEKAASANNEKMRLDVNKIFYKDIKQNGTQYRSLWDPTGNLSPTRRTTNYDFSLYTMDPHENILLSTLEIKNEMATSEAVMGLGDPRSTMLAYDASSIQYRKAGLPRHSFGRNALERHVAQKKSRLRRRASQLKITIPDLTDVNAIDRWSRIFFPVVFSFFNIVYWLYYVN
# Sequence of Gamma-aminobutyric acid Receptor A (GABAA) (P18507 40-475): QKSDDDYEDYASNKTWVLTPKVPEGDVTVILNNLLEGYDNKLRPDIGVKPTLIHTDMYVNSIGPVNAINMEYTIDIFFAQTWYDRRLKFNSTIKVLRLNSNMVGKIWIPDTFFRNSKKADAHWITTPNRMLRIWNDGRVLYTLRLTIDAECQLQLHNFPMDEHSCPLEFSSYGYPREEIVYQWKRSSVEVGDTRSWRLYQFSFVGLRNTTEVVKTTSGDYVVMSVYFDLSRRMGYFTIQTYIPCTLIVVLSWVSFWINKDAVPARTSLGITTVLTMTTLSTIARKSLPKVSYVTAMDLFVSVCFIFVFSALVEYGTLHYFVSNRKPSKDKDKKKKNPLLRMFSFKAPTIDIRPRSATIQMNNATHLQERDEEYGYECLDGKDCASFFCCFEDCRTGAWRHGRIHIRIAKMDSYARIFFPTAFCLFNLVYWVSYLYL
# [3] = tested on: adult rat spinal cord primary cultures; test: Spinal cord neurons neurite outgrowth assay; type: cell-based; details: NGF 50 ng/mL
# Description: To study the effect of HU-MCA-13 on adult rat spinal cord primary cultures in vitro, we developed a purification procedure that yields enriched different types of spinal cord neuronal cultures. This neurotropic assay was performed using vehicle 1% DMSO in DMEM as control and 10 μM HU-MCA-13. The results in Figure 1 bottom row and Figure 3D clearly indicate that in control there was very poor spontaneous neurite outgrowth of a total length of about 180 μm and NGF induced neurite outgrowth to a total length of about 800 μm. Similarly, HU-MCA-13 induced a neurite outgrowth of 600 μm. Figure 2B indicates cytoskeletal-tubulin protein expression in the cultured neurons. These findings further extend the neurotropic effect of HU-MCA-13 to spinal cord neurons, in addition to DRGs and PC12 cells.
# Spinal cords were isolated from adult rats (4–6 months old), and the meninges were removed from the spinal cord. The spinal cord was then cut into small pieces and collected in cold Hibernate A (Brainbits, Springfield, IL, USA), glutamine (0.5 mM), and B27 (Invitrogen, Carlsbad, CA). […] Neurite outgrowth was measured and presented as mean length of a neurite (microns). To measure neuronal survival, 450 cells were counted in 10 randomly chosen microscope fields of a known area in each of the three dishes per condition using a 20× objective and phase-contrast optics. […]
# [4] = tested on: PC12 dopaminergic cell cultures; test: PC12 neurotropic (neurite outgrowth) assay; type: cell-based, rat; details: for neurite outgrowth, Df value: NGF alone 50 ng/mL
# [5] = tested on: PGE2 production in PC12 cells; test: PGE2 production measured by ELISA; details: 50 ng/mL NGF; 24 h
# [6] = tested on: dorsal root ganglion (DRG) sensory neurons; test: DRG neurite outgrowth assay; type: cell-based, mice; details: NGF 50 ng/mL, DRG explants, 5 days
# Description: In the second step, we study the effect of HU-MCA-13 on ex-vivo sensory neuronal cultures obtained from dissociated dorsal root ganglia (DRG), a model in which the neurons tend to extend neurites in culture at a high rate, and all neurite outgrowths are axons, as confirmed by immune staining for cytoskeletal-specific proteins.[27] […] By contrast, NGF induced a strong, 3.5-fold increase in neurite outgrowth to a value of 700 μm (Figure 1 and Figure 3B) and a ratio of 8.5 between the area covered by neurites and that covered by the DRG ganglia (Figure 3C). Similarly, HU-MCA-13 induced a 2.5 fold increase in neurite outgrowth to a value of about 500 μm (Figure 1 and Figure 3B) and a ratio of 5.4 between the area covered by neurites and that covered by the DRG ganglia (Figure 3C). […] These experiments extend the neurotropic effect of MCA-13 observed with PC12 dopaminergic neuronal cultures to DRG sensory neurons.
# To perform these experiments, 10 DRGs were excised under sterile conditions and transferred to Dulbecco’s Modified Eagle Medium (DMEM) containing 0.25% Type IV collagenase in at 37 °C for 45 min, followed by a 20 min incubation with 0.025% trypsin in DMEM, to digest the associated connective tissue surrounding the neurons. After plating the ganglia onto collagen (50 μg/mL)/laminin mixture (5 μg/mL)-coated tissue culture wells for 24 h, DRG neurons were cultured for additional 1–7 days in fresh Neurobasal A/B27 medium[27] containing either 50 ng/mL NGF (positive control), medium containing 1% DMSO (negative control) or 5 μM MCA-13. The living cultures were photographed and thereafter, the ganglia were immunostained for β tubulin III and again photographed using a fluorescent microscope. A researcher blinded to the experimental conditions performed image analysis, and the neurite outgrowth length (in micrometers) was measured.[50]
molecule,measurement,setting,value
Dihydro-AY-erythroidine [reference compound],IC50,[1],0.707 µM
Picrotoxin,IC50,[2],5.92 µM
B1,neurite outgrowth total length,[3],about 800 μm
same,neurotropic effect in the presence of Trk A inhibitor K252a,"[4]; 250 nM K252a, 10 μM HU-MCA-13",abolished
same,"neurite outgrowth, Df value",[4]; 2 days,0.54
same,"neurite outgrowth, Df value",[4]; 7 days,0.4
same,neurite outgrowth,[4]; low dose of NGF 1 ng/mL,10%
same,"neurite outgrowth, Df",[4]; low dose of NGF 1 ng/mL,0.05
same,production of PGE2,[5],significantly increased
same,neurite outgrowth length,[6],700 μm
same,ratio between the area covered by neurites and that covered by the DRG ganglia,[6],8.5
same,fold increase in neurite outgrowth,[6]; versus control medium,3.5 fold
